Assay results published in PMC10954123.

Key:
[1] = target: MotE, endogenous in Cereibacter sphaeroides AM1 (Cereibacter sphaeroides (endogenous in AM1)); experiment: non-reducing SDS-PAGE; total cell extracts of AM1 prepared without or with beta-mercaptoethanol, immunodetection with anti-MotE; monomer to disulfide-linked dimer
[2] = target: His6x-MotE (mature form of MotE of Cereibacter sphaeroides) (Cereibacter sphaeroides); experiment: non-reducing SDS-PAGE; purified His6x-MotE, loading buffer without or with beta-mercaptoethanol, Coomassie blue stain; monomer to disulfide-linked dimer

stoichiometry N [1]	stoichiometry N [2]	Substance
2		MotE, endogenous in Cereibacter sphaeroides AM1 (natural protein)
	2	His6x-MotE (mature form of MotE of Cereibacter sphaeroides) (natural protein)
